According to PMC5770445:

Tests used:
[1] = target: His-LpxA (C. sakazakii) (UniProt A7MI18)
[2] = target: Labp V94A expressed from pKT25 (C. sakazakii); assay: two-hybrid; bacterial adenylate cyclase-based two-hybrid (BACTH) in E. coli BTH101, pKT25 and pUT18C fusions, β-galactosidase activity in Miller units

Molecule	LpxA enzymatic activity: fluorescence of ThioGlo-ACP conjugates (RFU) with UDP-GlcNAc and R-3-hydroxymyristoyl-ACP; 10 nM LpxA with 300 nM His-CSK29544 02616 against LpxA alone [1]	fold reduction in ß-galactosidase activity compared to intact Labp [2]
His-CSK29544_02616 (His×6-tagged CSK29544_02616 product, Labp) (natural protein)	2 fold	
LpxA expressed from pUT18C (enzyme) MIDKTAFIHPTAIVEEGAVIGANAHIGPFCIVGPDVKIGEGTVLKSHVVVNGHTTIGRDNEIYQFASIGEVNQDLKYAGEPTRVEIGDRNRIRESVTIHRGTAQGGGLTKVGSDNLLMINAHVAHDCTVGNRCILANNATLAGHVSVDDFAIIGGMTAVHQFCIIGAHVMVGGCSGVAQDVPPYVIAQGNHATPFGVNIEGLKRRGFSKEALHAIRNAYKLLYRSGKTLDEVKPEIAEIAAKHPEVQPFYDFFARSTRGLIR		4 fold
